Biological target: PARP1 (endogenous, Hela cell lysate) (human) (UniProt P09874)
Assay: scanning densitometry of PARP1 immunoprecipitates from Hela cells (FIG. 4B)

Chain of PARP1 (endogenous, Hela cell lysate) (human) (P09874 2-1014 limits assumed): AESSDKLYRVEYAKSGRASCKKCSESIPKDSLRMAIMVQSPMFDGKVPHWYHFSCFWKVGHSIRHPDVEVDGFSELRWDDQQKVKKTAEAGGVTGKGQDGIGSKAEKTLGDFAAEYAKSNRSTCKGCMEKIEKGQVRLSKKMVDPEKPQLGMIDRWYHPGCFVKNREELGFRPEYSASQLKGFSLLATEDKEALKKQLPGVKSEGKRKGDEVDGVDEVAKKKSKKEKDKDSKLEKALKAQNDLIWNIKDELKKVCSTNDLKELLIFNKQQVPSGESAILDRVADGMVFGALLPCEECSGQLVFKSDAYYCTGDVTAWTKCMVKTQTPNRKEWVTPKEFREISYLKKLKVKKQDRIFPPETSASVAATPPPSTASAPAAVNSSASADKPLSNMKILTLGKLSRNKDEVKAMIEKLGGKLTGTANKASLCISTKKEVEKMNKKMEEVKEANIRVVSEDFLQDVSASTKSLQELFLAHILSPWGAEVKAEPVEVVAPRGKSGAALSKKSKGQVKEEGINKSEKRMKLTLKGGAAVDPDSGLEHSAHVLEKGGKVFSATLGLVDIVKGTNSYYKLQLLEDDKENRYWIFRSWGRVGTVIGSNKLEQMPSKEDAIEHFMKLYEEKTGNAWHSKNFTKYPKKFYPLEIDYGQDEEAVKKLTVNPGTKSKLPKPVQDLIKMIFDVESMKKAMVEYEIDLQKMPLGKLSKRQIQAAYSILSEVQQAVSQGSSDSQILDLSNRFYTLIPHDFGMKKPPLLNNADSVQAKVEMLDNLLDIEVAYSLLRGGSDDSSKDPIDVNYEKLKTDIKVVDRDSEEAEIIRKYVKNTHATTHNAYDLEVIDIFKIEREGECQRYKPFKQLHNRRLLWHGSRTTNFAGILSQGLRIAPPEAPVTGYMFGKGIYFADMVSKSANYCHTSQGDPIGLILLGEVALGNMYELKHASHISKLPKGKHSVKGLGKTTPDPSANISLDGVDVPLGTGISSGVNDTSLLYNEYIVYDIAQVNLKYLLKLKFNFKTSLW

fold increase co-immunoprecipitated with PARP1 (Dox-treated versus untreated cells): 4.8 fold
Substance: BAL1 (endogenous, Hela cell lysate) (from UniProt Q8IXQ6 1-854)

Reference: patent publication US20150020221A1
